{
  "source": "the supplement of paper PMC9170038",
  "data": [
    {"tested_on": "K4 kissing-loop RNA reporter", "test": "apparent KD of K4 kissing-loop reporter; higher = weaker reporter binding", "settings": "Eterna round: R107; input ligand: arginine 13.2 mM", "experimental": "(§1)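 RNA-MaP round R107: designed RNA switches with theophylline, tryptophan, arginine or FMN aptamers are transcribed on-chip within common flanks. They are titrated with a labelled K4 kissing-loop RNA reporter in RNA-MaP buffer (100 mM Tris pH 7.5, 80 mM KCl, 4 mM MgCl2), without ligand or with the indicated ligand. Median apparent KD per design.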", "units": {"apparent KD of K4 kissing-loop reporter": "µM"}, "values": [
      {"sequence": "AUAUACCAGUGAUGUUGGUAUACUAUCGAUACCAGUAGAUACCAAUACCCUUGGCAGCGAUAAGACCGUACUGUAGCCAGUACUU [Theo A SS t4]", "apparent KD of K4 kissing-loop reporter": 0.191},
      {"sequence": "ACGUCCGGAUUAAUCGUGGGCAUGGUGGAUACCAGUUCUUUAAUGAACCCUUGGCAGCCACAUGAGUGAUGUUCAUGUGCGAUGA [KL-XTheo-A9 #analogue]", "apparent KD of K4 kissing-loop reporter": 0.117},
      {"sequence": "AAGUGUCAUUAGACACACUGAUGUAUAAACUAGGAUAUGCUGAUAAGCAGAAGGAGUGAUGUUCCUUUCAUCAUCAGAAUUAAAU [KL-XFMN-A2]", "apparent KD of K4 kissing-loop reporter": 0.113},
      {"sequence": "UGACUGGACUGAAGGAGCGCUGAACUCCUAGUGAUGUUAGGAUAACGAGACAAAGUCUCGAAGCAGGUAGGUCGCAGUCUAGUCU", "apparent KD of K4 kissing-loop reporter": 0.0953},
      {"sequence": "AUGCUUUUAAUAACACUAUAUACAACUGAAGGAGCGACAAUAAAGUCAGGUAGGUCGCAGAAUAAAUGAGUGAUGUUCAUUUUUA [JR_ExcArginiA_Sub009]", "apparent KD of K4 kissing-loop reporter": 0.13},
      {"sequence": "UUAGUCUAGAGAGGAUAUCAGUGAUGUUGAUAUCAAGAUCAUAGAUAGAAUUCUAUCUAUGAUCAAUGAGAAGGCUCUAGACAUU [AK1 Exc FMN B]", "apparent KD of K4 kissing-loop reporter": 0.141}
    ]},
    {"tested_on": "K4 kissing-loop RNA reporter", "test": "apparent KD of K4 kissing-loop reporter; higher = weaker reporter binding", "settings": "Eterna round: R107; input ligand: none", "experimental": "as §1", "units": {"apparent KD of K4 kissing-loop reporter": "µM"}, "values": [
      {"sequence": "CCUGCAGCUGUAACCGAGUGAUGAUACGGACGAGGACCGGUACGGCCGCCACUCGCCAGUGAUGUUGGUGUGGGAGGACGUAACU [KL-XTryp-A23]", "apparent KD of K4 kissing-loop reporter": 0.237},
      {"sequence": "AAGUGAUGUUGUAGUGAUGUUGUGAUGUUGCAGGAUAUAUAGUGAUGUAGAAGGGUAAGUACUGAUGUUGUUAGUAAGUGAUGUU [tvvbmullin]", "apparent KD of K4 kissing-loop reporter": 0.0899},
      {"sequence": "GCCUGGGCACGAAGGAGCGCCGUGACAGGUUACUGCCUUGGGCAGUGAUGUUGCUCAAUCUGGCAGGUAGGUCGCGUGCCCAGGC", "apparent KD of K4 kissing-loop reporter": 0.161},
      {"sequence": "AGACUACCACACUGUCAAUAGACAGUGGACUAGGAUAUGCUGAUAAGCAGAAGGAGUGAUGUUCCUGGGUAGUCAAUAAAAUAAU [FmnAX 13 G28+G67]", "apparent KD of K4 kissing-loop reporter": 0.526},
      {"sequence": "GGACGCCGGUCGGCCGCCACUCACAGCAGUGAUGUUGCUGAGCUUGUAGCGGAGUGAUGUUCCGAGAGGACCGGGACUGCAGUUU [Same State Tryptophan B GF 10]", "apparent KD of K4 kissing-loop reporter": 0.739},
      {"sequence": "GGUUCCUCAGUGAUGUUGAGGUGACCUCGGCAGGAUAUAGGCAUUACUAGAAGGGCCAAAAGAACCCUGUCCAGCGACACAGGGU [Inatinar]", "apparent KD of K4 kissing-loop reporter": 0.31},
      {"sequence": "GAUACACUUUCAGGUAUCCAGUGACUGGAUACCAGCAUGGAAACAUGCCCUUGGCAGCCAGAACUGGAAGUGAUGUUUCCAGUAA [Design7]", "apparent KD of K4 kissing-loop reporter": 0.195},
      {"sequence": "GGUAGCAUGGCGGCCGCCACUUAGACCCUCCAGGAUGAGGGAAAAUAGCAGUGAUGUUGCUAGGUAAGGACCGGGCCAUGCUACC", "apparent KD of K4 kissing-loop reporter": 0.162},
      {"sequence": "CAGACCACAGAGUGAUGUUCUGUGUCCGAAGGAGCGCGCGAGAGCGCAGGUAGGUCGCGGAUACAGUUGACGUACCUUCAAGACA [Arg A Ex t3]", "apparent KD of K4 kissing-loop reporter": 0.205},
      {"sequence": "AAAUCGUUCAGAAGGAGCGUGGAUUAUUCUUAUAUAUUUAUUACGAGUGAUGUUCGUAAUUCACAGGUAGGUCGCUGAUCGAUAA [JR_ExcArginiB_Sub004]", "apparent KD of K4 kissing-loop reporter": 0.112},
      {"sequence": "AAUAAAAUCACGGCCGCCACUGAAUAAUUGUUAAGUAGUGAUGUUACUUUACUUUUCUUAGUUAACAGGACCGGGUGAAUAUUUA [#18 K4 Tryptophan B Exclusion]", "apparent KD of K4 kissing-loop reporter": 0.107},
      {"sequence": "UUGUUUUACUGAAGGAGCGGCAAUUGAUACGUAGAUAUAGUGAUGUUAUAUAAGAUAGAGAGCCAGGUAGGUCGCAGAGGUGUUU [ExArgB.S]", "apparent KD of K4 kissing-loop reporter": 0.21},
      {"sequence": "UGUGAACAAAAGUAGAGUGGACCACUAUAGCGAGGACCGGUACGGCCGCCACUCGUAUAUGAAUUCAGUGAUGUUGAAAAGAGCU [whbob_EX_Tryp_A_t10]", "apparent KD of K4 kissing-loop reporter": 0.231},
      {"sequence": "CAUAUUUCGGCGGCCGCCACUGACCAUAGCCUUCGAUGGCCAGUGAUGUUGGCCUCUGGCUCUAACAGGACCGGGCCGAAUUGUG [Uslaxe]", "apparent KD of K4 kissing-loop reporter": 0.198},
      {"sequence": "AGACUACCACACUGUCAAUAGACAGUGAACUAGGAUAUGCUGAUAAGCAGAAGGAGUGAUGUUCCUAAUAAAAGGUAGUCAUAAU [FmnAX 16 #SwitchBubble #StaticStem #K4Early]", "apparent KD of K4 kissing-loop reporter": 0.415},
      {"sequence": "ACACUUUACGUAGGAUAUGCGACGAGUGAUGUUCGUCAGGCGGCUUUAGCUUAAGCAAGCCGCCUAGCAGAAGGACGGGCAGUGU [Bigemalaza]", "apparent KD of K4 kissing-loop reporter": 0.179},
      {"sequence": "GUCCCAGUGAUGUUGGUAGGCGAGCGGGAUACCAGCCAAGACUCAGGCCCUUGGCAGCCCACAUAUCCCACGUAGGGAGUAGCUC [Same State - Theophylline A (Freestyle 18)]", "apparent KD of K4 kissing-loop reporter": 0.209},
      {"sequence": "AAUGCAUAGUGAAGGAGCGCGAUAAGCAGUGAUGUUGCUUAGUUAUUAGUGUUUAUUUAUACGCAGGUAGGUCGCACUUUGCAUA [JR_ExcArginiB_Sub018]", "apparent KD of K4 kissing-loop reporter": 0.109},
      {"sequence": "UGAUAGCCAGUGAUGUUGGCAUGUACUGAAGGAGCGCGUGGAAACGCAGGUAGGUCGCAGUUCCUUGCCAAUUGAUCGAAAGAUC [#09 K4 Arginine A Exclusion]", "apparent KD of K4 kissing-loop reporter": 0.32},
      {"sequence": "CUCAAGUGAGGAUUUCGACAUCAAGAUGUGAAGGAUAUGUUACCAAACAGAAGGUCACGAUGUCAUCUAUGAGUGAUGUUCAGGA [theeternabot_sameState_KL_FMN_A_31]", "apparent KD of K4 kissing-loop reporter": 0.208},
      {"sequence": "AAGUGAUGUUGUAGUGAUGUUGUGAUGUUGCAGGAUAUAUAGUGAUGUAGAAGGGUAAGUACUGAUUUUGUUUGUGAGUGAUGUU [zqqzzrmullin]", "apparent KD of K4 kissing-loop reporter": 0.0738}
    ]}
  ]
}
